Laboratory results reported in patent publication US20230212319A1, “NOVEL ANTIGEN BINDING DOMAINS AND SYNTHETIC ANTIGEN RECEPTORS INCORPORATING THE SAME” (University of Southern California, priority 2020, published 2023).
Residue numbers refer to the chain shown, from its start.

B1: 4089 (protein)
chain: MALPVTALLLPLALLLHAARPDIQMTQSPSSLSASVGDRVTITCKASDHINNWLAWYQQKPGQAPKLLIYGATTLETGVPSRFSGSGSGTDYTLTISSLQPEDFATYYCQQSWNTPWTFGQGTKLEIKRLEDLKNVFPPEVAVFEPSKAEIAHTQKATLVCLATGFYPDHVELSWWVNGKEVHSGVCTDPQPLKEQPALNDSRYCLSSRLRVSATFWQNPRNHFRCQVQFYGLSENDEWTQDRAKPVTQIVSAEAWGRADCGITSASYHQGVLSATILYEILLGKATLYAVLVSALVLMAMVKRKDSRGRAKRSGSGATNFSLLKQAGDVEENPGPTSMDWIWRILFLVGAATGAHSGPQVQLQESGGGLAQAGGSLRLSCAASGRTFSMGWFRQAPGKEREFVAAITYSGGSPYYASSVRGRFTISRDNAKNTVYLQMNSLKPEDTAVYYCAANPTYGSDWNAENWGQGTQVTVSSGSGGGGSGGGGSGGGGSFEQVQLQQPGAELVKPGASVKMSCKASGYAFSSYWINWMKQKPGQGLEWIGQIYPGDGDTNYNGKFKGRATLTADTSSSTAYMQLSSLTSEDSAVYFCARSITTVVGCAMDYWGQGTSVTVSSTRIQNPDPAVYQLRDSKSSDKSVCLFTDFDSQTNVSQSKDSDVYITDKCVLDMRSMDFKSNSAVAWSNKSDFACANAFNNSIIPEDTFFPSSDVPCDVKLVEKSFETDTNLNFQNLSVIGFRILLLKVAGFNLLMTLRLWSSRAKRSGSGVKQTLNFDLLKLAGDVESNPGPSRGHMTEYKPTVRLATRDDVPRAVRTLAAAFADYPATRHTVDPDRHIERVTELQELFLTRVGLDIGKVWVADDGAAVAVWTTPESVEAGAVFAEIGPRMAELSGSRLAAQQQMEGLLAPHRPKEPAWFLATVGVSPDHQGKGLGSAVVLPGVEAAERAGVPAFLETSAPRNLPFYERLGFTVTADVEVPEGPRTWCMTRKPGA
modifications: Synthetic Polynucloetide
B2: 22691 (protein)
chain: MALPVTALLLPLALLLHAARPDIQMTQSPSSLSASVGDRVTITCRASQDISSYLNWYQQKPGKAPKLLIYYTSRLHSGVPSRFSGSGSGTDFTLTISSLQPEDFATYYCQQGNTLPYTFGQGTKVEIKRLEDLKNVFPPEVAVFEPSEAEISHTQKATLVCLATGFYPDHVELSWWVNGKEVHSGVCTDPQPLKEQPALNDSRYCLSSRLRVSATFWQNPRNHFRCQVQFYGLSENDEWTQDRAKPVTQIVSAEAWGRADCGFTSESYQQGVLSATILYEILLGKATLYAVLVSALVLMAMVKRKDSRGRAKRSGSGATNFSLLKQAGDVEENPGPTSMDWIWRILFLVGAATGAHSFEVQLVESGGGLVQPGGSLRLSCAASGFTFSDYFMSWVRQAPGKGLEWVATISNGGTYTYYPDSVKGRFTISRDNSKNTLYLQMNSLRAEDTAVYYCARFDGYIFDYWGQGTLVTVSSTRIQNPDPAVYQLRDSKSSDKSVCLFTDFDSQTNVSQSKDSDVYITDKCVLDMRSMDFKSNSAVAWSNKSDFACANAFNNSIIPEDTFFPSPESSCDVKLVEKSFETDTNLNFQNLSVIGFRILLLKVAGFNLLMTLRLWSSRAKRSGSGVKQTLNFDLLKLAGDVESNPGPSRGHMTEYKPTVRLATRDDVPRAVRTLAAAFADYPATRHTVDPDRHIERVTELQELFLTRVGLDIGKVWVADDGAAVAVWTTPESVEAGAVFAEIGPRMAELSGSRLAAQQQMEGLLAPHRPKEPAWFLATVGVSPDHQGKGLGSAVVLPGVEAAERAGVPAFLETSAPRNLPFYERLGFTVTADVEVPEGPRTWCMTRKPGA
B3: 22687 (protein)
chain: B2 chain with S52N, Y117W, F385Y
B4: 22692 (protein)
chain: B2 chain with S52N, Y117W
B5: 22694 (protein)
chain: B2 chain with S52N, Y117W
B6: 21997 (protein)
chain: MALPVTALLLPLALLLHAARPQLQLQESGPGLVKPSETLALTCNVSGGSISSSSYYWGWIRQPPGKRLEWIGSIYYSGSTYFNPSLKSRVTISVDTSKNQFSLKLSSVTAADTAVYYCAGGDYYGPVGQWPSDYRGQGTLVTVSSLEDLKNVFPPEVAVFEPSEAEISHTQKATLVCLATGFYPDHVELSWWVNGKEVHSGVCTDPQPLKEQPALNDSRYCLSSRLRVSATFWQNPRNHFRCQVQFYGLSENDEWTQDRAKPVTQIVSAEAWGRADCGFTSESYQQGVLSATILYEILLGKATLYAVLVSALVLMAMVKRKDSRGRAKRSGSGATNFSLLKQAGDVEENPGPTSMDWIWRILFLVGAATGAHSFEQVQLVESGGGLVQPGGSLRLSCAASGFTFTNHAMSWVRQAPGKGLELVSSISGNGRTTYYADSVKGRFTISRDISKNTLDLQMNSLRAEDTAVYYCAKDGGETLVDSRGQGTLVTVSSTRIQNPDPAVYQLRDSKSSDKSVCLFTDFDSQTNVSQSKDSDVYITDKCVLDMRSMDFKSNSAVAWSNKSDFACANAFNNSIIPEDTFFPSPESSCDVKLVEKSFETDTNLNFQNLSVIGFRILLLKVAGFNLLMTLRLWSSRAKRSGSGVKQTLNFDLLKLAGDVESNPGPSRGHMTEYKPTVRLATRDDVPRAVRTLAAAFADYPATRHTVDPDRHIERVTELQELFLTRVGLDIGKVWVADDGAAVAVWTTPESVEAGAVFAEIGPRMAELSGSRLAAQQQMEGLLAPHRPKEPAWFLATVGVSPDHQGKGLGSAVVLPGVEAAERAGVPAFLETSAPRNLPFYERLGFTVTADVEVPEGPRTWCMTRKPGA

How the values were obtained:
[1] = test system: RS411 cells; type: cell-based
[2] = test system: RAJI cells; assay: JNG (Jurkat NFAT-GFP) cells expressing SAR: GFP induction on co-culture with RAJI
[3] = test system: DAUDI (CD20+) cells; type: cell-based
[4] = test system: PC3 cells; assay: JNG NFAT-GFP induction on co-culture with PC3
[5] = test system: SKOV3 cells; type: cell-based
[6] = test system: L363 cells; assay: JNG assay, co-culture with L363 cells; type: cell-based; details: co-culture with L363
Method in brief: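 Read-out is NFAT-driven GFP measured by flow cytometry after ~4–18 h co-culture of SAR-expressing JNG cells with target cells (E:T about 1:2). SARs were introduced by lentiviral spinfection and selected with puromycin or blasticidin when possible; scores (+/- to 5+ ≈ 5–50% GFP+) are relative to parental JNG cells.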

[7] = JNG NFAT-GFP background GFP induction (tonic signaling); details: JNG cells expressing construct, without target

| Molecule | NFAT-GFP ASSAY: PC-3 [4] | NFAT-GFP ASSAY: SKOV-3 [5] | other results |
| --- | --- | --- | --- |
| B1 | – | – | GFP induction (JNG-GFP induction assay), RS;411 [1]: highly positive; GFP induction (JNG-GFP induction assay), RAJI WT [2]: positive; GFP induction (JNG-GFP induction assay), DAUDI [3]: highly positive |
| B2 | significant GFP induction | – | – |
| B3 | none to negligible GFP induction | weaker but sufficient GFP induction | – |
| B4 | none to negligible GFP induction | weaker but sufficient GFP induction | – |
| B5 | – | lowest GFP induction | – |
| B6 | – | – | NFAT-GFP ASSAY: L363 [6]: + (refer to approximately 5%, 10%, 20%, 30%, 40% and 50% GFP positive cells); NFAT-GFP ASSAY: Self Activation (SA) [7]: Self Activation |
